Patent US12139520B2 (priority 2020, dated 2024)
Numbered stars: 1 amine (or outer) side, 2 acyl side, 3 side chain; on linkers, the order of the positions; unused ones are H or OH. Bridge positions count the residues as written; N and C are the ends. Square brackets hold non-standard residues; d marks the D form. Ends that are not written are not given here. * marks the point of attachment. C20 diacid = O=C(O)CCCCCCCCCCCCCCCCCCC(=O)*; γGlu = O=C(O)[C@H](CCC(=O)[*:2])N[*:1]; Hyp = O=C(O)[C@@H]1C[C@@H](O)CN1

Tests used:
[1] = biological target: hAM1R (human, UniProt Q16602); experiment: cell-based or functional assay
[2] = biological target: T1, hAMY3R (human, UniProt P30988); experiment: cell-based or functional assay
T1 sequence 1: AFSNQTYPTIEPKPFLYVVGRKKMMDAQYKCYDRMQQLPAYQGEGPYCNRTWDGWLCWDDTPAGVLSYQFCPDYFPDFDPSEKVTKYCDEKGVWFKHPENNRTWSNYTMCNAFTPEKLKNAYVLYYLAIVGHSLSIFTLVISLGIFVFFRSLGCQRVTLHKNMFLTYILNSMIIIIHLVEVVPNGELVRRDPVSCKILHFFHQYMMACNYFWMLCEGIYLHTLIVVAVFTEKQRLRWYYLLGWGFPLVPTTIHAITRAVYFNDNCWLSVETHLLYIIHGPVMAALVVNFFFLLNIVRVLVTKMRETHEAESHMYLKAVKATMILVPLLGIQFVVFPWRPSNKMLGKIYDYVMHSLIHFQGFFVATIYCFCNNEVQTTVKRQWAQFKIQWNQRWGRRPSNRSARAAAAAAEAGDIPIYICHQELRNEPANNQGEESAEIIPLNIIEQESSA
T1 sequence 2: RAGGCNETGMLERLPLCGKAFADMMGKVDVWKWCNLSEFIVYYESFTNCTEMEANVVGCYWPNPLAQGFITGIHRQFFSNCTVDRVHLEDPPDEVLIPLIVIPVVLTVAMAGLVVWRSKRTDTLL

Row | Binder | hAM1R EC50 (cAMP) [1] [nM] | hAMY3R EC50 (cAMP) [2] [nM]
1 | KCNFATCATQRLANFLVQFTDKDKDNVAPRSKIGPQGY [SEQ ID NO: 363] | 1.77 | 0.01
2 | {C20 diacid-γGlu}-KCNFATCTVQRLAHQIYQFTDKDKDNVAPRTEVGSNGY-NH2 (disulfide 2-7 (inferred); ends not checked) [SEQ ID NO: 370] | 10.3 | 0.017
3 | GCRTGTCTVQWLAHQIYQFTDKDKDNVAPRSNVSPNG[Hyp]-NH2 (disulfide 2-7 (inferred); ends not checked) [SEQ ID NO: 360] | > 5000 | 0.165
4 | {C20 diacid-γGlu}-GCRFGTCTVQRLANQIYQFTDKDKDNVAPRTNVGPQGY-NH2 (disulfide 2-7 (inferred); ends not checked) [SEQ ID NO: 372] | 3.94 | 0.02
5 | KCNFATCTVQRLAHQIYQFTDKDKDNVAPRTKVGSNGY [SEQ ID NO: 361] | 0.913 | 0.006
6 | {C20 diacid-γGlu}-KCNTATCTVARLAHQIYQFTDKDKDNVAPPTNVGSNG[Hyp]-NH2 (disulfide 2-7 (inferred); ends not checked) [SEQ ID NO: 37] | > 5000 | 0.01
7 | GCRFGTCTVQRLAHQIYQFTDKDKDNVAPRTNVGPQGY [SEQ ID NO: 362] | 18.1 | 0.007
8 | GCRFGTCTVQRLAHQIYQFTDKDKDNVAPRSNVGPNGY [SEQ ID NO: 373] | 7.71 | 0.02
9 | GCRFGTCTVQRLAHQIYQFTDKDKDNVAPRTKISPNGY [SEQ ID NO: 371] | 3.03 | 0.019
10 | GCRFGTCTVQRLAHQIYQFTDKDKDNVAPRTKVGPQGY [SEQ ID NO: 368] | 0.997 | 0.015
11 | GCRFGTCTVQRLAHQIYQFTDKDKDNVAPRTNISPNGY [SEQ ID NO: 366] | 12.1 | 0.013
12 | GCRFGTCTVQRLAHFLYQFTDKDKDNVAPRTKIGPQGY [SEQ ID NO: 365] | 1.21 | 0.012
13 | GCRFGTCTVQRLAHFLYQFTDKDKDNVAPRTKVGPQGY [SEQ ID NO: 369] | 2.48 | 0.017
14 | GCRFGTCTVQRLAHQIYQFTDKDKDNVAPRSNVGPQGY [SEQ ID NO: 374] | 12 | 0.021
15 | GCRFGTCTVQRLAHQIYQFTDKDKDNVAPRSKVGPQGY [SEQ ID NO: 375] | 0.403 | 0.022
16 | GCRFGTCTVQRLAHQIYQFTDKDKDNVAPRTKIGPNGY [SEQ ID NO: 367] | 0.563 | 0.014
17 | GCRFGTCTVQRLAHFLYQFTDKDKDNVAPRTNIGPQGY [SEQ ID NO: 364] | 13.6 | 0.01
